Experimental data: US12655409B2, “Recombinant lysin and its use in the treatment of Gram-negative bacterial infections” (TELUM THERAPEUTICS S.L., priority 2020, dated 2026)

Columns and labels:
E. coli ATCC 25922 = experiment: MIC by microdilution in TP-Na 10 mM pH 6.15; format: cell-based, Escherichia coli
Procedure: The IKB206tags endolysin was purified from the Escherichia coli BL21 (DE3) strain, as previously described.
Checkerboard tests were assessed by the microdilution method, as previously described (Moody JA 1992, Moellering E G., Jr.1996). […] Each microtiter well contained 100 μl of a E. coli inoculum of 1×10^5 CFUs mL^−1, with or without the corresponding compounds, in a final volume of 200 μl of Sodium phosphate (TP-Na) buffer 10 mM pH 6.15 per well and the plates were incubated at 37° C. for 17 h.

[1] = system: E. coli strain ATCC 25922; experiment: Enzyme bactericidal activity assay on E. coli ATCC 25922; format: cell-based, Escherichia coli
Procedure: (§1) Briefly, the different bacterial cultures were incubated in the specific media (Table 1) at 37° C. or 30° C., according to the strain, until reaching an A600 of 0.3. The cells were then deposited by centrifugation (4500×g, 10 min) and washed twice with the corresponding buffer, with the A600 being adjusted to ≈0.3. A volume of 160 μl of the bacterial suspension was transferred to sterile 96-well plates to which there were added 40 μl of the enzyme under study in a range of doses comprised between 1 and 60 μg mL^−1. The control wells were treated with the same volume of buffer […]. The plates were incubated at 37° C. Samples were taken at different times, serial dilutions performed, and they were seeded in plates containing the specific medium to determine viable bacteria. The experiments were repeated at least 3 times. The bactericidal effect of IKB206 (and its variants) was quantified as the number of logs reduced in the presence of treatment, after a given incubation time (log10 (N0/Ni), where N0=number of CFU mL^−1 before treatment, and Ni=number of CFU mL^−1 after the corresponding incubation time in the presence of each treatment).

[2] = system: E. coli strain DSM 17076 with serotype O157: H7; experiment: Enzyme bactericidal activity assay on E. coli serotype O157:H7; format: cell-based, Escherichia coli; settings: 15 μg mL^−1
Procedure: as §1

[3] = system: M. lysodeikticus lyophilized cells; experiment: Enzyme specific activity assay (turbidometric, A450 decrease); format: biochemical, Micrococcus lysodeikticus; settings: 37° C., 10 mM Na2HPO4/NaH2PO4 pH 6
Procedure: The specific activity (U mG-1) was determined using a suspension of 0.6 mg mL^−1 of M. lysodeikticus lyophilized cells as substrate resuspended in cold buffer of the enzyme (10 mM Na2HPO4/NaH2PO4, PH 6 for IKB206tags and 50 mM K2HPO4/KH2PO4, pH 6.2 for egg white lysozyme) and incubating this suspension at different concentrations of the enzyme. Egg white lysozyme (Fisher BioReagents™ Lysozyme) was used as a control. Specifically, 100 μL of the M. lysodeikticus suspension were plated, in triplicate, into a multi-well plate and 100 μL of the different enzyme concentrations were added to the corresponding well. The plate was incubated at the appropriate temperature into a thermostated spectrophotometer (37° C. for IKB206tags and 25° C. for egg white lysozyme) and the A450 decrease was monitored over 10 min.
Unit definition: 1 unit is that amount of enzyme needed to catalyze a decrease in absorbance at 450 nm of 0.001/min at the appropriate temperature and pH of each lysozyme in a 1 cm cuvette due to lysis using a ˜0.4-0.6 mg/mL suspension of M. lysodeikticus.

C[C@@H](O)[C@H]1C(=O)N2C(C(=O)O)=C(SCCN=CN)C[C@H]12 [Imepenem]
MIC (E. coli ATCC 25922): 2.34 µg/mL

C[C@@H](O)[C@H]1C(=O)N2C(C(=O)O)=C(S[C@@H]3CN[C@H](C(=O)N(C)C)C3)[C@H](C)[C@H]12 [Meropenem]
MIC (E. coli ATCC 25922): 0.59 µg/mL

B1: IKB206tags: IKB206 with S-tag at the N-terminal end, 6-His tag at the C-terminal end and thrombin cleavage sites; 329 amino acids (protein)
chain: MKETAAAKFERQHMDSPDLGTLVPRGSMAISDPMKTSPNGIAVTKYFESFEARAYPDPATGGKPYTIGFGTTVYPSGAPVRLGDVCTKEQAEKYLQNDLAKFEKIVSDAVRVPLNQGQFDALVSFTYNLGPANLRSSTLLKKLNAGDYAGAAKEFPRWNRANGKVMKGLTRRRAAEQCLFEGMGGASAIERGVAAANSGTPKNVSRGTSSTKTTPKYKVKNGDNLTKIAKKHNTTVATLLKLNPGIKDPNMIRVGQTLNVTGSGGKTHKVKSGDTLSKIAVDNKTTVSKLMNLNPEITNPNHIKVGQTIRLSLGTLVPRGSLEHHHHHH
modifications: S-tag, 6-His tag, thrombin sites; chimeric endolysin (IKB206tags)
notes: IKB206 with S-tag at the N-terminal end, 6-His tag at the C-terminal end and thrombin cleavage sites; 329 amino acids
reduction in CFU mL^−1 ([1]; 5 μg mL^−1, 15 min of incubation): significant | incubation time for killing the entire culture ([1]; 15 μg mL^−1): 30 min | reduction of the number of CFU mL^−1 ([1]; 15 μg mL^−1, 5 minutes of incubation): more than 2 logs | incubation time for killing the entire culture ([1]; 60 μg mL^−1): 15 min | bactericidal activity on serotype O157:H7 [2]: significantly reduced the number of E. coli strain DSM 17076 cells, although it was not capable of killing the entire culture | specific activity [3]: around 8100 U mg^−1

B2: IKB206AD8: putative endolysin from phage Arya alone, catalytic domain of IKB206 without the D8 domain (protein)
chain: MKTSPNGIAVTKYFESFEARAYPDPATGGKPYTIGFGTTVYPSGAPVRLGDVCTKEQAEKYLQNDLAKFEKIVSDAVRVPLNQGQFDALVSFTYNLGPANLRSSTLLKKLNAGDYAGAAKEFPRWNRANGKVMKGLTRRRAAEQCLFEGMGGASAIERGVAAA
modifications: Enterobacter phage Arya; (1)..(163) Endolysin
bactericidal activity in the absence of the D8 domain [1]: presented bactericidal activity | incubation times to obtain the same levels of bactericidal activity as IKB206 [1]: longer incubation times were needed | reduction in CFU/mL ([1]; 15 μg mL^−1, 60 minutes): about 3 log | reduction in CFU/mL ([1]; 15 μg mL^−1, 180 minutes): about 5 log
